Among the data in article PMC8896826, “Cellular assays identify barriers impeding iron-sulfur enzyme activity in a non-native prokaryotic host” (eLife, 2022) are Kd values, retold here.

The target of the test is T1, tryptophan 2-C-methyltransferase (TsrM) from Streptomyces laurentii (Streptomyces laurentii, UniProt C0JRZ9 1-599).
T1 construct: TsrM, tryptophan 2-C-methyltransferase of the thiostrepton synthesis pathway, Streptomyces laurentii; As purified it holds 0.9 cobalamin and 3.5 Fe per monomer ([4Fe-4S] cluster); The methods describe no TEV cleavage for TsrM, so the His-tag was probably still on the protein; also called cobalamin-dependent rSAM methyltransferase TsrM; source: E. coli BL21(DE3), coexpressed with the Btu operon, …
T1 sequence (looked up): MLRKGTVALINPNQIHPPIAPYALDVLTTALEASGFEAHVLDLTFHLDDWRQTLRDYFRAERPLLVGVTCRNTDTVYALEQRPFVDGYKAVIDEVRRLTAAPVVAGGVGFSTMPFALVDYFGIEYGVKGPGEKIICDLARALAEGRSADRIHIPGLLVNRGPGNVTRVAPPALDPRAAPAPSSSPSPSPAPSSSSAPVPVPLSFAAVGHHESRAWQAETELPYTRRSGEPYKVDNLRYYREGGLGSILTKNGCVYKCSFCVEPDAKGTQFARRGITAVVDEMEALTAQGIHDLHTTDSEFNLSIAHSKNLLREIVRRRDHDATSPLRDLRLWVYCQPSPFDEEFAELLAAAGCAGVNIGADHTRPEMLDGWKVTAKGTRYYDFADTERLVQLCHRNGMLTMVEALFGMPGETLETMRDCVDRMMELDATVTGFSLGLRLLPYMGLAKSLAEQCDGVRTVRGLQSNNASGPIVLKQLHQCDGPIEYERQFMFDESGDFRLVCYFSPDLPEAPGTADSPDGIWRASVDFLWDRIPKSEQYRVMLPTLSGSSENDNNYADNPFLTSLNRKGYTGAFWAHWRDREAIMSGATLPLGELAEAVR
The experiment in a line: BLI; biotinylated ferredoxins (10 µg/mL) bound to streptavidin biosensors, plunged into TsrM solution at various concentrations (80 s association, 60 s dissociation); BLItz system in an anaerobic chamber (O2 <2 ppm); 25 mM Hepes pH 7.5, 300 mM KCl, 5% glycerol with Tween 20 and BSA. Conditions: both partners purified.

B1: Streptomyces cattleya ferredoxin Fdx1 (natural protein, UniProt F8K3M7 1-106, looked up)
chain: MTYVIAQPCVDVKDKACIEECPVDCIYEGQRSLYIHPDECVDCGACEPVCPVEAIFYEDDTPEEWKDYYKANVEFFDELGSPGGASKLGLIERDHPFIAALPPQNG
modifications: biotin (incubation with one equivalent of NHS-PEG4-Biotin)
notes: ferredoxin Fdx1 of Streptomyces cattleya, GenBank AEW96347.1; 7.4 Fe atoms per monomer after reconstitution (two [4Fe-4S] clusters); also called double-cluster [4Fe-4S] ferredoxin; not shown: His-tag, N-terminal, cleaved
For the molecule B1, the Kd amounted to 40 µM.
